Some targets named below: PBRM1 BD2 (UniProt Q86U86 178-291); PBRM1 BD4 (UniProt Q86U86 496-637); PBRM1 BD4 KRK (UniProt Q86U86 496-637, K511A;R512A;K513A); PBRM1 BD2 SKY (UniProt Q86U86 178-291, S275A;K277A;Y281A).
What all share (assay): NMR

Chain of PBRM1 BD2 SKY (Q86U86 178-291 S275A/K277A/Y281A): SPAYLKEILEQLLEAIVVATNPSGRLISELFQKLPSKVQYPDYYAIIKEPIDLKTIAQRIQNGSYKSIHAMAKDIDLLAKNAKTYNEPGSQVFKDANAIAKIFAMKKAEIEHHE
Chain of PBRM1 BD4 KRK (Q86U86 496-637 K511A/R512A/K513A): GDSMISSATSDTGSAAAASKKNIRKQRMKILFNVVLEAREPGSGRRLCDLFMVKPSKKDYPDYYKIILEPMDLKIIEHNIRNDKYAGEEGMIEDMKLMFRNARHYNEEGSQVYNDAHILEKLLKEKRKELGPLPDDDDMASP
Chain of PBRM1 BD2 (Q86U86 178-291): as the sequence (Q86U86 178-291 S275A/K277A/Y281A) above, with A98S, A100K, A104Y counted along it
Chain of PBRM1 BD4 (Q86U86 496-637): as the sequence (Q86U86 496-637 K511A/R512A/K513A) above, with A16K, A17R, A18K counted along it

What is called Kd is the concentration at which binding is half-saturated. Higher therefore signals lower affinity. In the case of GCGUAGACAGCUGUUCGCAGCUGUCUAUGC (structured_RNA) [dsRNAI], the Kd with PBRM1 BD2 was found to be 25 ± 8 µM; with PBRM1 BD4 it was 120 ± 20 µM; in the data set with PBRM1 BD4 KRK, 1020 ± 40 µM; with PBRM1 BD2 SKY, 200 ± 70 µM.
